# Data taken from the supplement of paper PMC7877785.
# ± gives the uncertainty stated by the source.
# Assay: self-splicing fitness, log relative to wild type (ln ratio); higher = more splicing; Tetrahymena group I intron in knt gene, E. coli kanamycin selection, DiMSum; sequences stand for … in CUCUCU…GGAGGGAAAAGUUAUCAGGCAUGCACCUGGUAGCUAGUCUUUAAACCAAUAGAUUGCAUCGGUUUAAAAGGCAAGACCGUCAAAUUGCGGGAAAGGGGUCAACAGCCGUUCAGUACCAAGUCUCAGGGGAAACUUUGAGAUGGCCUUGCAAAGGGUAUGGUAAUAAGCUGACGGACAUGGUCCUAACCACGCAGCCAAGUCCUAAGUCAACAGAUCUUCUGUUGAUAUGGAUGCAGUUCACAGACUAAAUGUCGGUCGGGGAAGAUGUAUUCUUCUCAUAAGAUAUAGUCGGACCUCUCCUUAAUGGGAGCUAGCGGAUGAAGUGAUGCAACACUGGAGCCGCUGGGAACUAAUUUGUAUGCGAAAGUAUAUUGAUUAGUUUUGGAGUACUCGUGGUCG
# How it was run: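 DiMSum derived fitness as the error-weighted combination of fold changes across replicates, kanamycin versus no kanamycin, normalised to wild type. E. coli BL21(DE3) held the library, which randomised all eight P1ex-region intron nucleotides within the knt kanamycin-resistance gene on pET-22b(+). Six replicate transformations grew overnight at 37°C or 30°C on LB agar with or without 25 μg/mL kanamycin, also containing 100 μg/mL carbenicillin, 50 μM IPTG and 0.2% rhamnose, and pooled colonies were amplicon-sequenced on an Illumina HiSeq 2500.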
Sequence,self-splicing fitness (ln) (30 °C),self-splicing fitness (ln) (37 °C)
AUUAAGCAAUAUUACGCGCU,-0.542 ± 0.11,-0.561 ± 0.15
AUUAAGCAAUAUUACGCUAA,-1.89 ± 0.17,-0.434 ± 0.13
AUUAAGCAAUAUUACGCUCC,-1.04 ± 0.23,-0.859 ± 0.29
AUUAAGCAAUAUUACGGAUA,-2.12 ± 0.28,-1.99 ± 0.2
AUUAAGCAAUAUUACGGCAC,-1 ± 0.086,-0.297 ± 0.11
AUUAAGCAAUAUUACGGCCA,-0.171 ± 0.12,-0.598 ± 0.12
AUUAAGCAAUAUUACGGCCC,-0.404 ± 0.27,-0.419 ± 0.27
AUUAAGCAAUAUUACGGCUC,-0.973 ± 0.16,0.244 ± 0.17
AUUAAGCAAUAUUACGGGUG,-1.87 ± 0.13,-1.69 ± 0.16
AUUAAGCAAUAUUACGGUCA,-1.4 ± 0.14,-0.528 ± 0.14
AUUAAGCAAUAUUACGGUUU,-0.783 ± 0.07,0.254 ± 0.12
AUUAAGCAAUAUUACGUCAU,-1.51 ± 0.1,-0.717 ± 0.12
AUUCAGCAAUAUUACGAACC,-0.503 ± 0.16,-0.325 ± 0.2
AUUCAGCAAUAUUACGAACU,0.334 ± 0.13,0.543 ± 0.14
AUUCAGCAAUAUUACGACGG,-2.61 ± 0.19,-1.52 ± 0.17
AUUCAGCAAUAUUACGACUA,-0.646 ± 0.12,-0.106 ± 0.12
AUUCAGCAAUAUUACGAGCG,-1.08 ± 0.078,-0.441 ± 0.1
AUUCAGCAAUAUUACGAUAA,-0.72 ± 0.086,-0.295 ± 0.099
AUUCAGCAAUAUUACGAUAC,-1.17 ± 0.097,0.368 ± 0.11
AUUCAGCAAUAUUACGAUCA,-0.753 ± 0.088,-0.162 ± 0.11
AUUCAGCAAUAUUACGCCAC,,-2.32 ± 0.42
AUUCAGCAAUAUUACGCCAG,-3.08 ± 0.22,-0.928 ± 0.22
AUUCAGCAAUAUUACGCCGA,0.0822 ± 0.39,-0.539 ± 0.39
AUUCAGCAAUAUUACGCGCA,-0.00177 ± 0.12,-0.315 ± 0.12
AUUCAGCAAUAUUACGCGCU,-2.15 ± 0.12,-0.796 ± 0.13

Sequence,self-splicing fitness (ln) (30 °C),self-splicing fitness (ln) (37 °C)
AUUCAGCAAUAUUACGCGGG,-2.38 ± 0.15,-0.332 ± 0.11
AUUCAGCAAUAUUACGCGUA,-1.16 ± 0.086,-0.145 ± 0.11
AUUCAGCAAUAUUACGCUCG,-1.11 ± 0.16,0.0381 ± 0.19
AUUCAGCAAUAUUACGGCCG,-1.09 ± 0.3,-0.945 ± 0.3
AUUCAGCAAUAUUACGGCCU,-1.03 ± 0.12,0.0851 ± 0.22
AUUCAGCAAUAUUACGGCGG,-1.77 ± 0.1,-1.77 ± 0.11
AUUCAGCAAUAUUACGGCUU,0.744 ± 0.12,-0.128 ± 0.13
AUUCAGCAAUAUUACGGGUC,-4.41 ± 0.46,-2.94 ± 0.24
AUUCAGCAAUAUUACGGUAA,-0.935 ± 0.086,-0.659 ± 0.078
AUUCAGCAAUAUUACGGUCC,-1.46 ± 0.11,-0.22 ± 0.12
AUUCAGCAAUAUUACGGUUU,-0.00618 ± 0.064,-0.247 ± 0.072
AUUCAGCAAUAUUACGUAAU,-0.328 ± 0.079,0.348 ± 0.11
AUUCAGCAAUAUUACGUACG,-1.91 ± 0.087,-0.205 ± 0.1
AUUCAGCAAUAUUACGUCAA,-0.663 ± 0.11,-0.912 ± 0.11
AUUCAGCAAUAUUACGUCGU,-0.283 ± 0.071,0.553 ± 0.085
AUUCAGCAAUAUUACGUGAG,0.00589 ± 0.07,0.325 ± 0.12
AUUCAGCAAUAUUACGUUAC,-2.76 ± 0.17,-1.2 ± 0.12
AUUGAGCAAUAUUACGAAGU,-1.71 ± 0.29,-1.72 ± 0.42
AUUGAGCAAUAUUACGAGGA,-1.8 ± 0.32,-2.41 ± 0.29
AUUGAGCAAUAUUACGAUGA,,-2.08 ± 0.35
AUUGAGCAAUAUUACGCAAG,-3.27 ± 0.19,-1.31 ± 0.18
AUUGAGCAAUAUUACGCACC,-1.98 ± 0.3,-1.84 ± 0.43
AUUGAGCAAUAUUACGCAGU,-2.95 ± 0.36,-2.11 ± 0.38
AUUGAGCAAUAUUACGCCAC,-1.44 ± 0.42,
AUUGAGCAAUAUUACGCCAU,-3.54 ± 0.24,-1.69 ± 0.19

Sequence,self-splicing fitness (ln) (30 °C),self-splicing fitness (ln) (37 °C)
AUUGAGCAAUAUUACGCUAA,-2.5 ± 0.16,-1.54 ± 0.16
AUUGAGCAAUAUUACGCUCG,-2.02 ± 0.33,-0.869 ± 0.22
AUUGAGCAAUAUUACGCUGC,-3.62 ± 0.47,-1.77 ± 0.41
AUUGAGCAAUAUUACGGAAA,-2.56 ± 0.3,-1.7 ± 0.25
AUUGAGCAAUAUUACGGAGA,,-1.85 ± 0.47
AUUGAGCAAUAUUACGGGCG,,-2.13 ± 0.34
AUUGAGCAAUAUUACGGUCG,-2.92 ± 0.36,-2.52 ± 0.45
AUUGAGCAAUAUUACGGUGG,-3.84 ± 0.46,-1.27 ± 0.15
AUUGAGCAAUAUUACGUAAA,-1.7 ± 0.15,-2.91 ± 0.34
AUUGAGCAAUAUUACGUCCU,-2.41 ± 0.19,-0.811 ± 0.15
AUUGAGCAAUAUUACGUCUG,-3.22 ± 0.21,-3 ± 0.26
AUUGAGCAAUAUUACGUUGU,-3.5 ± 0.14,-2.1 ± 0.16
AUUUAGCAAUAUUACGAAGC,-2.88 ± 0.23,-3.6 ± 0.46
AUUUAGCAAUAUUACGAGCA,-1.66 ± 0.25,-1.01 ± 0.18
AUUUAGCAAUAUUACGAUAU,-1.34 ± 0.097,-0.998 ± 0.11
AUUUAGCAAUAUUACGAUGC,-1.98 ± 0.23,-0.497 ± 0.21
AUUUAGCAAUAUUACGCAUA,-2.26 ± 0.12,-1.18 ± 0.12
AUUUAGCAAUAUUACGCGAC,-2.16 ± 0.27,-2.87 ± 0.47
AUUUAGCAAUAUUACGGCAU,-0.0305 ± 0.11,-0.15 ± 0.18
AUUUAGCAAUAUUACGGGGU,-3.47 ± 0.26,-2.32 ± 0.19
AUUUAGCAAUAUUACGGUAC,,-1.07 ± 0.33
AUUUAGCAAUAUUACGGUAG,-3.72 ± 0.27,-2.03 ± 0.21
AUUUAGCAAUAUUACGUCGU,-1.7 ± 0.11,-1.33 ± 0.1
AUUUAGCAAUAUUACGUGCU,-2.78 ± 0.11,-0.856 ± 0.1
AUUUAGCAAUAUUACGUUAC,-2.76 ± 0.33,-2 ± 0.27

Sequence,self-splicing fitness (ln) (30 °C),self-splicing fitness (ln) (37 °C)
AUUUAGCAAUAUUACGUUAU,-2.2 ± 0.2,-1.95 ± 0.24
CAAAAGCAAUAUUACGAAUA,-2.77 ± 0.16,-1.5 ± 0.15
CAAAAGCAAUAUUACGAGGC,-4.77 ± 0.39,-2.34 ± 0.18
CAAAAGCAAUAUUACGAGUA,-3.32 ± 0.14,-1.89 ± 0.11
CAAAAGCAAUAUUACGAGUG,-0.995 ± 0.058,-0.101 ± 0.075
CAAAAGCAAUAUUACGAUAC,-2.95 ± 0.15,-2.53 ± 0.2
CAAAAGCAAUAUUACGCAAU,-4.03 ± 0.3,-1.93 ± 0.24
CAAAAGCAAUAUUACGCCUA,-2.75 ± 0.27,-1.51 ± 0.17
CAAAAGCAAUAUUACGCGCG,-0.71 ± 0.082,-0.59 ± 0.09
CAAAAGCAAUAUUACGCGUA,-2.01 ± 0.12,-1.32 ± 0.11
CAAAAGCAAUAUUACGCUCC,-2.23 ± 0.22,-1.99 ± 0.29
CAAAAGCAAUAUUACGCUCU,-1.6 ± 0.12,-1.63 ± 0.16
CAAAAGCAAUAUUACGGAAA,-2.67 ± 0.5,-2.08 ± 0.3
CAAAAGCAAUAUUACGGAAC,-2.55 ± 0.15,-2.87 ± 0.27
CAAAAGCAAUAUUACGGACU,-2.38 ± 0.12,-1.46 ± 0.12
CAAAAGCAAUAUUACGGUCC,-3.68 ± 0.29,-1.88 ± 0.21
CAAAAGCAAUAUUACGGUCG,0.0608 ± 0.056,-0.107 ± 0.063
CAAAAGCAAUAUUACGGUCU,-3.38 ± 0.13,-1.1 ± 0.086
CAAAAGCAAUAUUACGGUGA,-1.57 ± 0.096,-1.62 ± 0.1
CAAAAGCAAUAUUACGUAGA,-1.88 ± 0.078,-1.97 ± 0.12
CAAAAGCAAUAUUACGUCCU,-2.18 ± 0.087,-0.725 ± 0.09
CAAAAGCAAUAUUACGUCUA,-1.75 ± 0.097,-0.725 ± 0.083
